Laboratory results taken from patent publication US20250326842A1 (BEIGENE SWITZERLAND, published 2025).
Where two headings read alike, the source gives them in different places.

Legend:
[1] = target: T1, human PVRIG recombinant protein (human, UniProt Q6DKI7 41-171); assay: SPR, antibody captured via anti-human Fc, human PVRIG analyte
T1 construct: also called human PVRIG protein; recombinant human antigen PVRIG
T1 sequence: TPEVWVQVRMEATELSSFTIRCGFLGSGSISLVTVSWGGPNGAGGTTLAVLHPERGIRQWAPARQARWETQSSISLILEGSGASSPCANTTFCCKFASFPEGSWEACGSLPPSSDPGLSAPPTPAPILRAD
Source text: For affinity determination, antibodies were captured by anti-human Fc antibodies, and used in the affinity determination based on surface plasmon resonance (SPR) technology.

[2] = target: T2, Cyno PVRIG expressed on HEK293 cells (cynomolgus monkey); assay: flow cytometry on 293T cells expressing cyno PVRIG, anti-hFc-AF647 detection
T2 construct: also called native Cyno PVRIG
T2 chain: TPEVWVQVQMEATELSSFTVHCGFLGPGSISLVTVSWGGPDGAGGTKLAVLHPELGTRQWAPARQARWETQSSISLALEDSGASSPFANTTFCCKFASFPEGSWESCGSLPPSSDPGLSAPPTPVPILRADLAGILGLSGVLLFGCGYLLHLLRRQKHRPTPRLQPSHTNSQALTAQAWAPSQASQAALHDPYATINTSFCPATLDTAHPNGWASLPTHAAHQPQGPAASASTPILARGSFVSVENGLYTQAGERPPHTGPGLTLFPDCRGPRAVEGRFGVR
Method: To evaluate the binding activity of anti-PVRIG antibodies to native Cyno PVRIG on living cells. HEK293 cells were engineered to express Cyno PVRIG. HEK293 expressing PVRIG cells were seeded in 96 well plates and were incubated with a serial dilution of anti-PVRIG antibodies. […] EC50 values for dose dependent binding to Cyno native PVRIG were determined by fitting the dose response data to the four-parameter logistic model with GraphPad Prism™.

[3] = target: T3, human PVRIG expressed on cells (human, UniProt Q6DKI7 41-326); assay: flow cytometry on Jurkat cells expressing human PVRIG, anti-hFc-AF647 detection
T3 construct: Jurkat cells engineered to express human PVRIG; also called hPVRIG-Jurkat; native human PVRIG
T3 sequence: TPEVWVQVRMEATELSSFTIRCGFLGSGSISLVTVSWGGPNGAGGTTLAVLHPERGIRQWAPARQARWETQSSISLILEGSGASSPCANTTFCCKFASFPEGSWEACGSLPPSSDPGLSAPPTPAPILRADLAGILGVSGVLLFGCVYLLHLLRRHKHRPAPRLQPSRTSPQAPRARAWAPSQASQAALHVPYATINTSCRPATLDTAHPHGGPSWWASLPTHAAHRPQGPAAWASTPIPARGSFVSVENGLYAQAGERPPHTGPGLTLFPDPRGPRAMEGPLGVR
Method: To evaluate the binding activity of anti-PVRIG antibodies to native PVRIG on living cells, Jurkat cells were engineered to express human PVRIG. […] EC50 values for dose dependent binding to human native PVRIG were determined by fitting the dose response data to the four-parameter logistic model with GraphPad Prism™.

[4] = target: T4, hPVRIG-ECD-his (human, UniProt Q6DKI7 41-171); assay: blocking ELISA: hPVRIG-His coated, antibody mixed with PVRL2-biotin at 1 ug/mL; % inhibition of PVRL2 binding
T4 construct: Acrobiosystems PVG-H52H4; also called hPVRIG-His; human PVRIG-His; not shown: His tag
T4 sequence: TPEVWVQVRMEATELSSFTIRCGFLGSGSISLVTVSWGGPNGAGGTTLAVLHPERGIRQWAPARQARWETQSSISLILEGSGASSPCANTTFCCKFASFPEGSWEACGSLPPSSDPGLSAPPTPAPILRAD

[5] = target: T3, human PVRIG expressed on cells; assay: FACS on human PVRIG-expressing cells
[6] = target: T1, human PVRIG recombinant protein; assay: ELISA, chimeric antibody on recombinant human PVRIG
[7] = target: T1, human PVRIG recombinant protein; assay: SPR, antibody captured via anti-human Fc, human PVRIG analyte; remark: listed apart in the source
Method: Chimeric anti-PVRIG antibodies were generated in human IgG1 format and characterized for binding kinetics by surface plasmon resonance (SPR) assays using BIAcore™ T-200 (GE Life Sciences). […] Then a serial dilution of human or Cyno PVRIG protein was flowed over the chip surface and changes in surface plasmon resonance signals were analyzed to calculate the association rates (kₒₙ) and dissociation rates (koff) by using the one-to-one Langmuir binding model (BIA Evaluation Software, GE Life Sciences). The equilibrium dissociation constant (KD) was calculated as the ratio koff/kₒₙ.

[8] = target: T1, human PVRIG recombinant protein; assay: as above; remark: listed apart in the source
Source text: For affinity determination, anti-PVRIG antibodies were captured by anti-human Fc antibodies, and used in the affinity assay based on surface plasmon resonance (SPR) technology.

[9] = target: T4, hPVRIG-ECD-his; assay: competition ELISA, antibody against PVRL2 on coated human PVRIG
[10] = target: T2, Cyno PVRIG expressed on HEK293 cells; assay: flow cytometry on 293T cells expressing cyno PVRIG, anti-hFc-AF647 detection [panel A]
Method: (§1) To evaluate the binding activity of anti-PVRIG antibodies to native Cyno PVRIG on living cells. HEK293 cells were engineered to express Cyno PVRIG. HEK293 cells transfected with Cyno PVRIG were seeded in 96 well plates and were incubated with a serial dilution of anti-PVRIG antibodies. […] EC50 values for dose dependent binding to Cyno native PVRIG were determined by fitting the dose response data to the four-parameter logistic model with GraphPad Prism™.

[11] = target: T3, human PVRIG expressed on cells; assay: flow cytometry on Jurkat cells expressing human PVRIG, anti-hFc-AF647 detection [panel A]
Method: (§2) To evaluate the binding activity of anti-PVRIG antibodies to native PVRIG on living cells, Jurkat cells were engineered to express human PVRIG. Jurkat cells expressing PVRIG were seeded in 96 well plates and were incubated with serially diluted anti-PVRIG antibodies. […] EC50 values for dose dependent binding to human native PVRIG were determined by fitting the dose response data to the four-parameter logistic model with GraphPad Prism™.

[12] = target: T4, hPVRIG-ECD-his; assay: blocking ELISA: hPVRIG-His coated, antibody mixed with PVRL2-biotin at 1 ug/mL; % inhibition of PVRL2 binding [panel A]
[13] = target: T2, Cyno PVRIG expressed on HEK293 cells; assay: flow cytometry on HEK293 cells expressing cyno PVRIG, anti-hFc-647 detection [panel B]
Method: as §1

[14] = target: T3, human PVRIG expressed on cells; assay: flow cytometry on Jurkat cells expressing human PVRIG, anti-hFc-647 detection [panel B]
Method: as §2

B1: BGA861 (antibody, V domains shown)
VH: EVQLVESGGGLVKPGGSLRLSCAASGFTFSSYGISWVRQAPGKGLEWVSEISSGGTYTYYPDTVTGRFTISRDNAKNTLYLQMSSLRAEDTAVYYCARGDPFGYWGQGTLVTVSS
VL: DIQMTQSPSSLSASVGDRVTITCKASQDVMTAVAWYQQKPGKAPKLLIYSTSYRFTGVPSRFSGSGSGTDFTLTISSLQPEDFATYYCQQHYSTPRTFGGGTKVEIK
notes: Humanized BGA86
Kd [1]: 0.645 nM
koff [1]: 0.000954 s⁻¹
kon [1]: 1.48e+06 M⁻¹ s⁻¹
EC50 (read off the curve) [2]: ~0.04 µg/mL
EC50 (read off the curve) [3]: ~0.02 µg/mL
IC50 (read off the curve) [4]: ~0.2 µg/mL

B2: BGA862 (antibody, V domains shown)
VH: EVQLVESGGGLVKPGGSLRLSCAASGFTFSSYGLSWVRQAPGKGLEWVSEISSGGTYTYYPDTVTGRFTISRDNAKNTLYLQMSSLRAEDTAVYYCARGDPFGYWGQGTLVTVSS
VL: DIQMTQSPSSLSASVGDRVTITCKASQDVMTAVAWYQQKPGKAPKLLIYSTSYRFTGVPSRFSGSGSGTDFTLTISSLQPEDFATYYCQQHYSTPRTFGGGTKVEIK
notes: Humanized BGA86
Kd [1]: 0.898 nM
koff [1]: 0.00216 s⁻¹
kon [1]: 2.41e+06 M⁻¹ s⁻¹
EC50 (read off the curve) [2]: ~0.01 µg/mL
EC50 (read off the curve) [3]: ~0.01 µg/mL
IC50 (read off the curve) [4]: ~0.1 µg/mL

B3: BGA38 (antibody, V domains shown)
VH: EVQLQESGAEHVMPGASVKMSCKAAGYTFTDYWMYWVKQRPGQGLEWIGTIDTSDHKTSYNQKFRGKATLTVDESSSTAYMQLSSLTSEDSAVYYCARDFIITVNYPVVDYWGQGTSVTVSS
VL: QNVLTQSPAIMSASPGEKVTITCSAGSSVNYMHWFQQKPGTSPKLWIYSTSNLASGVPARFSGSGSGTSYSLTISRMEAEDAATYYCQQRSSLPFTFGSGTKLEIK
notes: also called BGA38-WT
EC50 [5]: 0.059 nM
binding Emax (MFI) [5]: 1040 MFI
EC50 [6]: 0.524 nM
Kd [7]: 0.112 nM
koff [7]: 0.00017 s⁻¹
kon [7]: 1.52e+06 M⁻¹ s⁻¹
Kd [8]: 0.045 nM
koff [8]: 0.000175 s⁻¹
kon [8]: 3.89e+06 M⁻¹ s⁻¹
IC50 [9]: 1.5 nM
PVRIG/PVRL2 blocking Emax (% Inhibition) [9]: 60%
EC50 (read off the curve) [10]: ~0.05 µg/mL
EC50 (read off the curve) [11]: ~0.03 µg/mL
IC50 (read off the curve) [12]: ~0.6 µg/mL

B4: BGA381 (antibody, V domains shown)
VH: EVQLVQSGAEVKKPGASVKVSCKASGYTFTDYWIYWVRQAPGQGLEWMGTIDTSDHKTSYNQKFRGRVTMTRDTSTSTVYMELSSLRSEDTAVYYCARDFIITVNYPVVDYWGQGTLVTVSS
VL: QIVLTQSPATLSLSPGERATLSCSAGSSVNYMHWFQQKPGQAPRLLIYSTSNLASGVPARFSGSGSGTDYTLTISSLEPEDFAVYYCQQRSSLPFTFGQGTKLEIK
notes: Humanized BGA38; also called BGA381-WT; BGA381/IgG1 WT
Kd [8]: 0.0707 nM
koff [8]: 0.000311 s⁻¹
kon [8]: 4.4e+06 M⁻¹ s⁻¹
EC50 (read off the curve) [10]: ~0.06 µg/mL
EC50 (read off the curve) [13]: ~0.06 µg/mL
EC50 (read off the curve) [14]: ~0.03 µg/mL
EC50 (read off the curve) [11]: ~0.03 µg/mL
IC50 (read off the curve) [12]: ~0.4 µg/mL

B5: BGA383 (antibody, V domains shown)
VH: EVQLVQSGAEVKKPGASVKVSCKASGYTFTDYWIYWVRQAPGQGLEWMGTIDTSDAKTSYNQKFRGRVTMTRDTSTSTVYMELSSLRSEDTAVYYCARDFIITVNYPVVDYWGQGTLVTVSS
VL: QIVLTQSPATLSLSPGERATLSCSAGSSVNYMHWFQQKPGQAPRLLIYSTSNLASGVPARFSGSGSGTDYTLTISSLEPEDFAVYYCQQRSSLPFTFGQGTKLEIK
notes: Humanized BGA38
Kd [8]: 0.0998 nM
koff [8]: 0.000649 s⁻¹
kon [8]: 6.51e+06 M⁻¹ s⁻¹
EC50 (read off the curve) [13]: ~0.04 µg/mL
EC50 (read off the curve) [14]: ~0.03 µg/mL

B6: BGA382 (antibody, V domains shown)
VH: EVQLVQSGAEVKKPGASVKVSCKASGYTFTDYWIYWVRQAPGQGLEWMGTIDTSDHKTSYNQKFRGRVTMTRDTSTSTVYMELSSLRSEDTAVYYCARDFIITVNYPVVDYWGQGTLVTVSS
VL: QNVLTQSPATLSLSPGERATLSCSAGSSVNYLHWFQQKPGQAPRLLIYSTSNLASGVPARFSGSGSGTDYTLTISSLEPEDFAVYYCQQRSSLPFTFGQGTKLEIK
notes: Humanized BGA38
Kd [8]: 0.0646 nM
koff [8]: 0.000211 s⁻¹
kon [8]: 3.26e+06 M⁻¹ s⁻¹
EC50 (read off the curve) [10]: ~0.03 µg/mL
EC50 (read off the curve) [11]: ~0.03 µg/mL
IC50 (read off the curve) [12]: ~0.4 µg/mL

B7: BGA86 (antibody, human IgG1, V domains shown)
VH: EVQLQESGGGSVKPGGSLQLSCAASGFTFSSYGMSWIRQSPEKKLEWVAEISSGGTYTYYPDTVTGRFTISRDNAKNTLYLEMSSLRSEDTAMYYCARGDPFGYWGQGTLVTVSA
VL: DVVMTQSHKFVSTSVGGRVSITCKASQDVMTAVAWYQQKPGQSPKLLIYSTSYRFTGVPDRFTGSGSGTDFTLTINGVQAEDLAVYSCQQHYSTPRTFGGGTKLEIK
notes: also called BGA86-WT
EC50 [5]: 0.038 nM
binding Emax (MFI) [5]: 1030 MFI
EC50 [6]: 0.069 nM
Kd [7]: 0.161 nM
koff [7]: 0.00215 s⁻¹
kon [7]: 1.34e+07 M⁻¹ s⁻¹
Kd [1]: 0.304 nM
koff [1]: 0.000772 s⁻¹
kon [1]: 2.54e+06 M⁻¹ s⁻¹
IC50 [9]: 0.885 nM
PVRIG/PVRL2 blocking Emax (% Inhibition) [9]: 97.2%
EC50 (read off the curve) [2]: ~0.01 µg/mL
EC50 (read off the curve) [3]: ~0.02 µg/mL
IC50 (read off the curve) [4]: ~0.1 µg/mL
